{
  "source": "paper PMC8980801",
  "about": "(2022)",
  "key": {"[1]": {"target": "FLAG-Fzd4-3C-sGFP1–10-PDZ (mouse | not stated) (UniProt Q61088)", "assay": "SEC; FLAG-Fzd4-sGFP1–10 and FLAG-Fzd4-sGFP11 coexpressed in Sf9, solubilised in DDM, M1 anti-FLAG eluate on Superose 6 to separate dimers from monomers; total protein compared with GFP fluorescence"}, "[2]": {"target": "T1, LRP6 monomer in biotinylated nanodiscs (human, UniProt O75581 20-1439)", "T1 chain": "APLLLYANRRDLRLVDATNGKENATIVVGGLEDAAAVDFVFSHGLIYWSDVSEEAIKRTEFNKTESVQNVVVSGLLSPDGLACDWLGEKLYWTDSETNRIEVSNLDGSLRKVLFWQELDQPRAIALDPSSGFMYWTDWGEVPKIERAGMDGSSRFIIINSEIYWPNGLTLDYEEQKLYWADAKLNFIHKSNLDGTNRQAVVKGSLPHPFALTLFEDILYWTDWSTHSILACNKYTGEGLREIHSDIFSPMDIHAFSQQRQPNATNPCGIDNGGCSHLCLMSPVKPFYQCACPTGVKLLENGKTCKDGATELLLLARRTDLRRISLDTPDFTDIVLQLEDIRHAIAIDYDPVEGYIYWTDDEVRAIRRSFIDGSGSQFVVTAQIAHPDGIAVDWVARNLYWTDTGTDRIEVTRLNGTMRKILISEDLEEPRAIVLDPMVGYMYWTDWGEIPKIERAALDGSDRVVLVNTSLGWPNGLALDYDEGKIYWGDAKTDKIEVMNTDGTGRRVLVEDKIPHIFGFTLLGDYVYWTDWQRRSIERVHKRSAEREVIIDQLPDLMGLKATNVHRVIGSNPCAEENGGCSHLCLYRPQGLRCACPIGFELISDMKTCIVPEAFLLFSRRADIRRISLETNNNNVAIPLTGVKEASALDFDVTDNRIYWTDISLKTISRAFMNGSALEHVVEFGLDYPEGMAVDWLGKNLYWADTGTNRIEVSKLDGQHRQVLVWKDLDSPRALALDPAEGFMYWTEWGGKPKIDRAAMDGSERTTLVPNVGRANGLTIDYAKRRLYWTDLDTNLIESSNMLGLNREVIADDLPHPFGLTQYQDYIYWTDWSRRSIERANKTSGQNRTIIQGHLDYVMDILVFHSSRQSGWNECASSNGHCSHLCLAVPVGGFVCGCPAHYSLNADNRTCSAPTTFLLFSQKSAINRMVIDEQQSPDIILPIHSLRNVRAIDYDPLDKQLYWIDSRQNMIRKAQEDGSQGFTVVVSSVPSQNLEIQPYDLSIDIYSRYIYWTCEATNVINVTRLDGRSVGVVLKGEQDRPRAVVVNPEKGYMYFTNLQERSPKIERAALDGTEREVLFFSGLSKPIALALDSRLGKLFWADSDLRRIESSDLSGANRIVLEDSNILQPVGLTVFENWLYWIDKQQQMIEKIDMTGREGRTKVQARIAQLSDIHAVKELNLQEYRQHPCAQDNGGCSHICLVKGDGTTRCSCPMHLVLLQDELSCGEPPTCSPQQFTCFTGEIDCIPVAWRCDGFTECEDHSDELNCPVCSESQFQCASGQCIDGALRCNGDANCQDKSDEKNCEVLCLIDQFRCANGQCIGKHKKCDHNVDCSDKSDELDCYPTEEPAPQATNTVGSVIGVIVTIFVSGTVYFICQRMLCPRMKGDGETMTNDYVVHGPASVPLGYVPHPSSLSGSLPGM", "assay": "BLI; kinetic"}, "[3]": {"target": "Fzd4–LRP6 heterodimer in biotinylated nanodiscs (mouse | human) (UniProt Q61088)", "assay": "BLI; biotinylated nanodiscs on streptavidin biosensors, 0-100 nM DKK1, empty discs subtracted, 25 °C, 20 mM Hepes pH 7.4, 150 mM NaCl, 1 mM EDTA, 1 mg/ml BSA; steady state"}, "[4]": {"target": "T2, Fzd4–LRP6 heterodimer in biotinylated nanodiscs (mouse | human, UniProt Q61088 42-537; O75581 20-1439)", "T2 chain 1": "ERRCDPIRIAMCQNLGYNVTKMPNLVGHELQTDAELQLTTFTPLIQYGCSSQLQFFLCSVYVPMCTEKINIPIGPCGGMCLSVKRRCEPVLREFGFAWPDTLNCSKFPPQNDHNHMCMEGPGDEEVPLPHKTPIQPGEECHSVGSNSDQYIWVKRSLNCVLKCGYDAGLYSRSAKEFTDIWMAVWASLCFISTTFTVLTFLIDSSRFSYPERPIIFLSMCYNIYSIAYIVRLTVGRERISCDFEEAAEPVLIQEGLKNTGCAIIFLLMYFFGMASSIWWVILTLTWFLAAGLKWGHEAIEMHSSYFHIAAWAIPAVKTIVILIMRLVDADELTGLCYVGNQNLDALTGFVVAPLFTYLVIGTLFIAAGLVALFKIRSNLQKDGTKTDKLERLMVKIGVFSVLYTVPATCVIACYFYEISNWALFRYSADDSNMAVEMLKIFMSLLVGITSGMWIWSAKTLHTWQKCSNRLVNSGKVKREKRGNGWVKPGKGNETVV", "T2 chain 2": "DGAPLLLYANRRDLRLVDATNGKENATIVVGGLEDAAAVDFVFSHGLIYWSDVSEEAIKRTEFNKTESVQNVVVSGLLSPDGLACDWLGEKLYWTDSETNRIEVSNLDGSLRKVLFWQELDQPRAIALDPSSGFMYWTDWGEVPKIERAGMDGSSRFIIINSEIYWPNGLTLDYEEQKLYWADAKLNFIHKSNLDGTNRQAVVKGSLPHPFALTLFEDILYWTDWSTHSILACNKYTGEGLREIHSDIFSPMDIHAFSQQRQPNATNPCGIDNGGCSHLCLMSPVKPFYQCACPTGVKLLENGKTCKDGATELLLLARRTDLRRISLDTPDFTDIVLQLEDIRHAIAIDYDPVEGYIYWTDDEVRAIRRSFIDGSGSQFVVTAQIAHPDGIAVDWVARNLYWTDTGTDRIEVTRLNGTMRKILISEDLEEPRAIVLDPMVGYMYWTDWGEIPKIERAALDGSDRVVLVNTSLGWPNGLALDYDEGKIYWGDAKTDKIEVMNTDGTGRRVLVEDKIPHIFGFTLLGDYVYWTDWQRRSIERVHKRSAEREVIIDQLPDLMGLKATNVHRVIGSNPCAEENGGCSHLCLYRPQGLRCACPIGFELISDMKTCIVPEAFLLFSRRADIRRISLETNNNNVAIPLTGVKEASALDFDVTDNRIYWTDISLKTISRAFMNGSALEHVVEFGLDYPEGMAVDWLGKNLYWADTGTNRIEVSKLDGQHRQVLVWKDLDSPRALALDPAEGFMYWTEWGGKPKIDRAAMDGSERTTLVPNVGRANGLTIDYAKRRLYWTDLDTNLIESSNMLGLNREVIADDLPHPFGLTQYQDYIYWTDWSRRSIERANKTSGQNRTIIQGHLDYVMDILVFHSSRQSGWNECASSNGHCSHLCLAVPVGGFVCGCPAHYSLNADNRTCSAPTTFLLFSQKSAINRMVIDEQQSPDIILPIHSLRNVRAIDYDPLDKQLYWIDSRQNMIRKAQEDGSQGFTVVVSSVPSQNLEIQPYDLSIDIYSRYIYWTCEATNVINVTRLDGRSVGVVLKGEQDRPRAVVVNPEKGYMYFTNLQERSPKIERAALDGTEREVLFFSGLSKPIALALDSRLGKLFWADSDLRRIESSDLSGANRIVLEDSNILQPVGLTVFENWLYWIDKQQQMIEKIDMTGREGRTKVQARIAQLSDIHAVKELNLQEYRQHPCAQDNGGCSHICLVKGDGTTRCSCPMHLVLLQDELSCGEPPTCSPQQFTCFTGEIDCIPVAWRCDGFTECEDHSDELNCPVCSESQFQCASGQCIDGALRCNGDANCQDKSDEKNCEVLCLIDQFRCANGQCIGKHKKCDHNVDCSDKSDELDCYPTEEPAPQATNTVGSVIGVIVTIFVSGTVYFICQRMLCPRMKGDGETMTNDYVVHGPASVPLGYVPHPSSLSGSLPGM", "assay": "BLI"}, "[5]": {"target": "T1, LRP6 monomer in biotinylated nanodiscs", "assay": "BLI"}, "[6]": {"target": "T3, Fzd4 homodimer in biotinylated nanodiscs (mouse, UniProt Q61088 42-537)", "T3 chain": "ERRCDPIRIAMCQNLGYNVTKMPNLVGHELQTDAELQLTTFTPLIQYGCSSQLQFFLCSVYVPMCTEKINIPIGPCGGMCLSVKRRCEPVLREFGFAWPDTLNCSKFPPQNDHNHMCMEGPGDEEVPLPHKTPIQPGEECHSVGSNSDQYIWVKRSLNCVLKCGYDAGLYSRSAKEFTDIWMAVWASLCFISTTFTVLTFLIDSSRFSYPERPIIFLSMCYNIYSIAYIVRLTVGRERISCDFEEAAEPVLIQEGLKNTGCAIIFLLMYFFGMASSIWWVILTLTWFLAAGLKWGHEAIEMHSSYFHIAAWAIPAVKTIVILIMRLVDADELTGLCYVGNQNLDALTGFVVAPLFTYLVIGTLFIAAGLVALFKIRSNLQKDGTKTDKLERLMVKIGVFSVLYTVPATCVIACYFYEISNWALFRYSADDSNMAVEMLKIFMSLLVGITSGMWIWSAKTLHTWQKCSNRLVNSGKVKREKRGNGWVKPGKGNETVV", "assay": "BLI; biotinylated nanodiscs on streptavidin biosensors, 0-10 nM MBP–Norrin, 3 h association, 25 °C, 20 mM Hepes pH 7.4, 150 mM NaCl, 1 mM EDTA, 1 mg/ml BSA; steady state"}, "[7]": {"target": "T3, Fzd4 homodimer in biotinylated nanodiscs", "assay": "BLI"}, "[8]": {"target": "Fzd4–LRP6 heterodimer in biotinylated nanodiscs (mouse | human) (UniProt Q61088)", "assay": "BLI; nanodiscs with 5% PIP2 on SMAP biosensors, 0.01 to 32 μM DEP, empty nanodiscs subtracted, 25 °C, 20 mM Hepes pH 7.4, 150 mM NaCl, 1 mM EDTA, 1 mg/ml BSA; steady state"}, "[9]": {"target": "Fzd4–LRP6 heterodimer in biotinylated nanodiscs, prebound to Norrin (mouse | human | not stated) (UniProt Q61088)", "assay": "BLI; nanodiscs with 5% PIP2 on SMAP biosensors, 0.01 to 32 μM DEP, empty nanodiscs subtracted, 25 °C, 20 mM Hepes pH 7.4, 150 mM NaCl, 1 mM EDTA, 1 mg/ml BSA; steady state"}, "[10]": {"target": "T2, Fzd4–LRP6 heterodimer in biotinylated …", "assay": "BLI; without Norrin"}, "[11]": {"target": "T4, Fzd4–LRP6 heterodimer in biotinylated nanodiscs, prebound to Norrin (mouse | human | , UniProt Q61088 42-537; O75581 20-1439; Q00604 33-133)", "assay": "BLI"}, "[12]": {"target": "T4, Fzd4–LRP6 heterodimer in biotinylated …", "assay": "BLI", "remark": "listed apart in the source"}, "[13]": {"target": "T2, Fzd4–LRP6 heterodimer in biotinylated …", "assay": "BLI; kinetic, without Norrin"}},
  "data": [
    {"molecule": "FLAG-Fzd4-3C-sGFP11-PDZ (Sf9) (from UniProt Q61088 42-537) (receptor)", "values": [
      {"measurement": "percent of the expressed protein GFP dimerized", "setting": "[1]", "result": 50, "unit": "%"}
    ]},
    {"molecule": "Dikkopf1 (DKK1) (ligand) TLNSVLNSNAIKNLPPPLGGAAGHPGSAVSAAPGILYPGGNKYQTIDNYQPYPCAEDEECGTDEYCASPTRGGDAGVQICLACRKRRKRCMRHAMCCPGNYCKNGICVSSDQNHFRGEIEETITESFGNDHSTLDGYSRRTTLSSKMYHTKGQEGSVCLRSSDCASGLCCARHFWSKICKPVLKEGQVCTKHRRKGSHGLEIFQRCYCGEGLSCRIQKDHHQASNSSRLHTCQRH", "values": [
      {"measurement": "Kd", "setting": "[2]", "result": 16.7, "unit": "nM"},
      {"measurement": "Kd", "setting": "[3]", "result": 5.6, "unit": "nM"},
      {"measurement": "koff", "setting": "[4]", "result": 0.0057, "unit": "s⁻¹"},
      {"measurement": "koff", "setting": "[5]", "result": 0.012, "unit": "s⁻¹"}
    ]},
    {"molecule": "MBP–Norrin (ligand) DSDPRRCMRHHYVDSISHPLYKCSSKMVLLARCEGHCSQASRSEPLVSFSTVLKQPFRSSCHCCRPQTSKLKALRLRCSGGMRLTATYRYILSCHCEECNS", "values": [
      {"measurement": "Kd", "setting": "[6]", "result": 0.46, "unit": "nM"},
      {"measurement": "koff", "setting": "[7]", "result": 0.00034, "unit": "s⁻¹"}
    ]},
    {"molecule": "Dishevelled-2 (Dvl2) DEP domain (domain or fragment) GLSVHMDMASVTKAMAAPESGLEVRDRMWLKITIPNAFLGSDVVDWLYHHVEGFPERREARKYASGLLKAGLIRHTVNKITFSEQCYYVFGDLSG", "values": [
      {"measurement": "Kd", "setting": "[8]", "result": 220, "unit": "nM"},
      {"measurement": "Kd", "setting": "[9]", "result": 198, "unit": "nM"},
      {"measurement": "koff", "setting": "[10]", "result": 0.0095, "unit": "s⁻¹"},
      {"measurement": "Kd", "setting": "[11]", "result": 420, "unit": "nM"},
      {"measurement": "koff", "setting": "[12]", "result": 0.013, "unit": "s⁻¹"},
      {"measurement": "Kd", "setting": "[13]", "result": 260, "unit": "nM"}
    ]}
  ]
}
